Target: miniTRIM37 RING–B-box-2–hcc (human | T. thermophilus) (UniProt O94972)
Assay: SEC-MALS

Q: Which stoichiometry N does the source give for “miniTRIM37 RING–B-box-2–hcc (from UniProt O94972 1-158; O94972 214-254)” here?
A: 2
